Laboratory results taken from patent publication US11666658B2, “Rifamycin analogs and antibody-drug conjugates thereof” (Regeneron Pharmaceuticals, Inc., priority 2018, dated 2023).
Changes are numbered by the printed parent chain. Names and notes keep the numbering of the source.

T1: Ac-LDL binding to His9-hMSR1 (Homo sapiens, UniProt P21757)
T1 construct: human MSR1 extracellular domain expressed with a N-terminal nonahistidine tag; purchased R&D Systems 2708-MS
T1 sequence (P21757 77-451 limits assumed): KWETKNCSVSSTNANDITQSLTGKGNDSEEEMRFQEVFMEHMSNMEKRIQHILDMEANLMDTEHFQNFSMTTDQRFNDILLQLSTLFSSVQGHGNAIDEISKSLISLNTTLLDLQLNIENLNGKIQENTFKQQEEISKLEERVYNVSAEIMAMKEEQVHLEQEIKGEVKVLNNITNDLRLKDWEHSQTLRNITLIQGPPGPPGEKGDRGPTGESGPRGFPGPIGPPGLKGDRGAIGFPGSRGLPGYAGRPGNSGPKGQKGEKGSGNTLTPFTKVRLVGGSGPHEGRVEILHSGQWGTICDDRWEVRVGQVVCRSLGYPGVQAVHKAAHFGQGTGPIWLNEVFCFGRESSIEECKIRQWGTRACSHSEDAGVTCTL

T2: MSR1-mediated DiI-AcLDL uptake in HEK293.Myc.hMSR1 cells (Homo sapiens, UniProt P21757)
T2 construct: expressed in transfected cells; host or cells: HEK293 (lentiviral transduction, hygromycin selection)
T2 sequence (P21757 1-451): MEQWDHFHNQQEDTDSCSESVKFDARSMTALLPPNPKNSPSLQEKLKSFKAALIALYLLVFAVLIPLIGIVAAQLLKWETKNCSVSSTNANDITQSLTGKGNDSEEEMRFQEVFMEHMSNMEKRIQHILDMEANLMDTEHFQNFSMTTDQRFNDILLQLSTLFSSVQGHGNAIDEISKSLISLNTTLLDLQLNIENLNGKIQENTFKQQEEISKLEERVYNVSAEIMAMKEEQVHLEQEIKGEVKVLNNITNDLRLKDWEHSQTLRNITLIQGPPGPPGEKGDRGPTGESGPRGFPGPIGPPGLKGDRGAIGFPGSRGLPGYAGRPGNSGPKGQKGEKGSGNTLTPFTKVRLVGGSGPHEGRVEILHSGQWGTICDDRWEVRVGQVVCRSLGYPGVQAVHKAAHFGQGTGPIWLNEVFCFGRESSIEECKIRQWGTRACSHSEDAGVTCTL

T3: Ox-LDL binding to His9-hMSR1 (Homo sapiens, UniProt P21757)
T3 construct: human MSR1 extracellular domain expressed with a N-terminal nonahistidine tag; purchased R&D Systems 2708-MS
T3 sequence (P21757 77-451 limits assumed): T1 sequence (P21757 77-451 limits assumed)

T4: biot-AGE-BSA binding to His9-hMSR1 (Homo sapiens, UniProt P21757)
T4 construct: human MSR1 extracellular domain expressed with a N-terminal nonahistidine tag; purchased R&D Systems 2708-MS
T4 sequence (P21757 77-451 limits assumed): T1 sequence (P21757 77-451 limits assumed)

B1: H1H21227N-N297D: "The 21227N antibody was also produced as a third version with a N297D mutation" (antibody, V domains shown)
VH: QVQLVQSGAEVKKPGASVKVSCKVSGYTLTELSIHWVRQVPGKGLEWMGGFDPEEGETIFAQEFRDRVTLTEDTSPDTAYMELSSLKSEDAAVYYCTTPRYCNNGICYDYWGQGTLVTVSS
VL: DIQMTQSPSSLSASVGDRVTITCRASQSISNYLNWYQQKPGKAPKLLIYTASSLQSGVPSRFSGSGSGTDFTLTISSLQTEDFATYYCQQSYSNFPITFGQGTRLEIKR
B2: H1H21231N: "Three anti-MSR1 antibodies ... (21227N, 21231N, 21234N) were produced with the original human Fcγ portion" (antibody, V domains shown)
VH: EVQLVESGGGLVQPGGSLRLSCAASGFTFSDHYMDWVRQAPGKGLEWVGRTRNKANSHTTEYTASVTGRFTISRDDSRNSLYLQMNSLKTEDTAVYYCVRAGIIGTLFDYWGQGTLVTVSS
VL: B1 VL with S7F, N31S, Y32F, Y36F, L46F, T50A, T80P, N94S, F95P
B3: H1H21231N-N297Q: modified version of "21231N (H1H21231N-N297Q) anti-MSR1 antibodies" with "a N297Q single point mutation" (antibody, V domains shown)
VH: B2 VH
VL: B1 VL with S7F, N31S, Y32F, Y36F, L46F, T50A, T80P, N94S, F95P
B4: H1H27734P-N297Q: one of "Twelve anti-MSR1 antibodies" that "bound to parental HEK293 cells"; human IgG1 Fc with N297Q mutation (antibody, V domains shown)
VH: EVQLVESRGGLVQPGGSLRLSCAASGFTFSSYAMSWVRQAPGKGLEWVSAISGSGGSTFYADSVKGRFTISRDNSKNTVYLQMNSLRAEDTAVYYCAKALVLRFLEWLGDYWGQGTLVTVSS
VL: DIQMTQSPSTLSASVGDRVTITCRASQSISSWLAWFQQKPGKAPKLLIYKASSLESGVPSRFSGSGSGTEFTLTISSLQPDDFATYYCQQYKSYWTFGQGTKVEIKR
B5: H2aM21229N: one of "Twelve anti-MSR1 antibodies"; "an 'H2aM' antibody has a mouse IgG2a Fc" (antibody, V domains shown)
VH: EVQLVESGGGLVKPGGSLRLSCAASGFTFSRYSMNWVRQAPGKGLEWVSSISSSSSYIYYGDTVKGRFTISRDNAKKSLYLQMNSLRAEDTAVYYCVRDRGQLVLYFDYWGQGTLVTVSS
VL: DIQMTQSPASLSTSIRDRVTITCRASLSISSFLNWFQQRPGKAPKLLIYVASNLQSGVPSRFSDSGSGTDFTLTISSLQPEDFATYYCQQNYSTPPITFGQGTRLEIK
B6: H1H27739P-N297Q: anti-MSR1 antibody; "antibodies H1H27739P-N297Q and H1H27734P-N297Q showed no inhibition of DiI-AcLDL uptake" (antibody, V domains shown)
VH: EVQLVESGGGLVQPGGSLRLSCTASGFTFSSYAMSWVRQAPGKGLEWVSAISGTGSSTYFTDSVKGRFAISRDNSKNTLYLQMNSLRAEDTAVYYCAKDGEWLSTVTLFDYWGQGTLVTVSS
VL: EIVMTQSPATLSVSPGERATLSCRASQSVSSNLAWYQQKPGQAPRLLIYGASTRATGIPARFSGSGSGTDFTLTISSLQSEDFALYYCQQYFIWPPHPTFGPGTKVDIKR

Biological target: T1, Ac-LDL binding to His9-hMSR1
Assay: Competition sandwich ELISA, Ac-LDL
Conditions: anti-MSR1 antibody 100 nM, 50 pM Ac-LDL
Experimental: (§1) The ability of anti-MSR1 antibodies disclosed herein to block the binding of various ligands to human MSR1 was measured using three competition sandwich ELISA assays. The ligands used in the assays were: (1) acetylated LDL (Ac-LDL), (2) oxidized LDL (Ox-LDL), and (3) advanced glycation end-products of bovine serum albumin (AGE-BSA).
(§2) Anti-MSR1 antibodies or isotype control antibodies were serially diluted as appropriate for each tested ligand and added in duplicate for each serial dilution set to microtiter plates coated with His9-hMSR1. Buffer alone was also added to wells on each coat. […] This assay was conducted in four different assay runs.
(§3) Data analysis was performed using a sigmoidal dose-response model within Prism™ software (GraphPad). Percent blockade at maximum concentration of the antibody tested in each assay was calculated as an indicator of the ability of the antibodies to block the binding of Ac-LDL, Ox-LDL or biot-AGE-BSA to His9-hMSR1 on the plate relative to the baseline of the assay. In the calculation, binding signal of the same concentrations of Ac-LDL, Ox-LDL, or biot-AGE-BSA used for the assays in the absence of antibody was referenced as 100% binding or 0% blocking, while the baseline of the assay, defined as binding signal of the sample of buffer without MSR1 ligands or antibody, was referenced as 0% binding or 100% blocking. The maximum percent blockade at the highest concentration of antibody tested in each assay are reported for all antibodies.

% Blocking of Ac-LDL binding to His9-hMSR1 [%]	Molecule
101	B1
−62	B2
−60	B3

Biological target: T2, MSR1-mediated DiI-AcLDL uptake in HEK293.Myc.hMSR1 cells
Assay: Ligand uptake assay, DiI-AcLDL
Type: cell-based
Conditions: not given
Experimental: The resulting cell line, referred to here as “HEK293.Myc.hMSR1”, was selected and maintained in DMEM containing 10% FBS, NEAA, penicillin/streptomycin, L-glutamine, and 100 μg/mL hygromycin.
After 30 minutes, either oxidized or acetylated low-density lipoprotein (LDL) labeled with 1,1′ dioctadecyl-3,3,3′,3′-tetramethylindocarbocyanine perchlorate (referred to as “DiI-OxLDL” or “DiI-AcLDL,” respectively) was added to the cells at a constant concentration of 10 μg/mL. […] Results were analyzed using nonlinear regression (4-parameter logistics) with the Prism 7 program to obtain EC50 and IC50 values. The percentage of inhibition was calculated with the Relative Fluorescent Unit (RFU) values by using the following equation: […]
In the equation, “RFUBaseline” is the fluorescence value from the cells treated with 10 μg/mL ligand without antibodies, “RFUInhibition” is the minimum fluorescence value with for a particular antibody with 10 μg/mL ligand, and “RFUBackground” is the fluorescence value from cells without any ligand or antibodies.

inhibition of DiI-AcLDL uptake (in words)	Molecule
no inhibition of DiI-AcLDL uptake	B4
no inhibition of DiI-AcLDL uptake	B5
no inhibition of DiI-AcLDL uptake	B6

Same assay, conditions: 10 μg/mL DiI-AcLDL

IC50, Dil-Acetylated LDL	Molecule
no inhibition	B4
no inhibition	B5
no inhibition	B6

Same assay, conditions: maximum inhibition of uptake, 10 μg/mL DiI-AcLDL

% Inhibition, Dil-Acetylated LDL	Molecule
no inhibition	B4
no inhibition	B5
no inhibition	B6

Biological target: T3, Ox-LDL binding to His9-hMSR1
Assay: Competition sandwich ELISA, Ox-LDL
Conditions: anti-MSR1 antibody 500 nM, Ox-LDL 10 nM
Experimental: as §1, §2, §3

% Blocking of Ox-LDL binding to His9-hMSR1 [%]	Molecule
99	B1
22	B2
26	B3

Biological target: T4, biot-AGE-BSA binding to His9-hMSR1
Assay: Competition sandwich ELISA, biot-AGE-BSA
Conditions: anti-MSR1 antibody 300 nM, 400 pM biot-AGE-BSA
Experimental: as §1
For the assay, recombinant monomeric human MSR1 protein comprised of a portion of the human MSR1 extracellular domain expressed with a N-terminal 9-Histidine tag (SEQ ID NO: 688) (His9-hMSR1; R&D Systems, Cat #2708-MS) was coated at a concentration of […] in PBS on a 96-well microtiter plate overnight at 4° C. for use in competition ELISA assays with Ac-LDL, Ox-LDL, or biotinylated-AGE-BSA (“biot-AGE-BSA”). […] Anti-MSR1 antibodies or isotype control antibodies were serially diluted as appropriate for each tested ligand and added in duplicate for each serial dilution set to microtiter plates coated with His9-hMSR1. Buffer alone was also added to wells on each coat. After 1 hour incubation at room temperature, without wash, a final constant concentration of 50 pM Ac-LDL (Life Technologies/ThermoFisher Scientific, Cat #L-35354), 5 nM or 10 nM Ox-LDL (Alfa Aesar, Cat #J65591), or 400 pM biot-AGE-BSA (R&D Systems, Cat #BT4127) were added to plates with His9-hMSR1, and the plates were incubated for an additional 1 hour at room temperature. (Concentrations of Ac-LDL, Ox-LDL and biot-AGE-BSA for antibody inhibition assays were selected from the approximate midway point within the linear portion of individual binding curves of Ac-LDL, Ox-LDL or biot-AGE-BSA to plate-coated His9-hMSR1.) Wells were washed, and plate-bound Ac-LDL or Ox-LDL were detected with anti-LDL rabbit antibody (Alfa Aesar, Cat #J64398) in combination with anti-rabbit IgG (H+L) specific donkey polyclonal antibodies conjugated with horseradish peroxidase (HRP) (JacksonImmunoResearch, Cat #711-035-152) and biot-AGE-BSA was detected with a streptavidin-HRP (ThermoFisher Scientific, Cat #N200). Plates were developed using TMB substrate solution (BD Biosciences, Cat #51-2606KC & Cat #51-2607KC) according to manufacturer's recommendation and absorbance at 450 nm was measured on a Victor™ Multilabel Plate Reader (PerkinElmer™). This assay was conducted in four different assay runs.
as §3, with “antibodies. Negative percent blockade numbers reflected higher MSR1 ligands binding to plate coated His9-hMSR1 in the presence of antibodies.” for “antibodies.”

% Blocking of biot-AGE-BSA binding to His9-hMSR1 [%]	Molecule
97	B1
−44	B2
−50	B3
